Test [1] deals with biotinylated human IgM (human). The test is described as follows: SPR; BIAcore T100, 37 °C, HBS-EP; biotinylated human IgM on streptavidin chip (biotinylated human IgG as reference), gel-filtered monomeric DBL domains injected at 20 μl/min for 2 min to equilibrium; 1:1 Langmuir isotherm. (SPR reads the build-up and loss of mass on a sensor chip optically.)
Test [2] deals with SPAM fragment of DBLMSP2 (3D7) (Plasmodium falciparum (3D7 strain)). The test is described as follows: SEC; size exclusion chromatography of the purified Cd4-tagged proteins; markers thyroglobulin, ferritin, aldolase, conalbumin, carbonic anhydrase.
Test [3] deals with recombinant full-length DBLMSP2 (3D7), monobiotinylated (Plasmodium falciparum (3D7 strain)). As to the kind of experiment: SPR; BIAcore T100, 37 °C, HBS-EP; biotinylated full-length DBLMSP or DBLMSP2 on streptavidin chip, purified human IgM injected 30 min at 10 μl/min to equilibrium; equilibrium fit to a simple Langmuir isotherm; values reflect overall binding avidity.
In test [4] the target is recombinant full-length DBLMSP (3D7), monobiotinylated (Plasmodium falciparum (3D7 strain)). Described as above.

A value given as a limit tells only on which side of the number the result lay.

In turn, “DBL domain of DBLMSP2 (3D7) (domain or fragment)” came in with a Kd in test [1] of 0.6 µM. Still for that read-out and setting: in the case of “DBL domain of DBLMSP (3D7) (domain or fragment)” it was 0.06 µM. Substance “SPAM fragment of DBLMSP2 (3D7) (domain or fragment)” had a stoichiometry N in test [2] of over 4.

Regarding human IgM (natural protein), the results for the Kd in test [3] and in test [4] were 0.0011 µM and 0.0003 µM, respectively.

A word on the stoichiometry N: it is the number of molecules, sites or subunits per partner or assembly.

(Values after article PMC4933183.)
